In the supplement of paper PMC7125110:
± gives the standard error. This sample holds only a part of the variants without activity.

B1: glmS ribozyme (parent)
chain: AUAAAAGCGCCAGAACUACAGAAAUGUAGUUGACGAGGAGGAGGUUUAUCGAAUUUUCGGCGGAUGCCUCCAAA

Columns and labels:
Settings in all cases: with glucosamine-6-phosphate
glucosamine-6-phosphate [1] = variants of: B1; experiment: self-cleavage kobs at 640 uM GlcN6P; higher = faster cleavage; RNA array
Procedure, shortened: (§1)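 Glucosamine-6-phosphate in HEPES/KCl/Mg(OAc)2 buffer, at 40 μM to 10 mM, was flowed over barcoded ribozyme variants transcribed in situ by E. coli RNA polymerase on sequenced MiSeq chips. Tracking was through a hybridised Cy3 probe at 37 °C. kobs, kcat and KM came from exponential decay fits and weighted Michaelis–Menten fits of normalised per-tile medians.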

glucosamine-6-phosphate [2] = variants of: B1; experiment: self-cleavage kobs at 2500 uM GlcN6P; higher = faster cleavage; RNA array
Procedure, shortened: as §1

glucosamine-6-phosphate [3] = variants of: B1; experiment: self-cleavage kobs at 10000 uM GlcN6P; higher = faster cleavage; RNA array
Procedure, shortened: as §1

| Variant | self-cleavage kobs at 640 uM GlcN6P (glucosamine-6-phosphate [1]) [s⁻¹] | self-cleavage kobs at 2500 uM GlcN6P (glucosamine-6-phosphate [2]) [s⁻¹] | self-cleavage kobs at 10000 uM GlcN6P (glucosamine-6-phosphate [3]) [s⁻¹] |
| --- | --- | --- | --- |
| AUAAAAGCGCCAUAACUACAGAAAUGUAGUUGACGAGGAGGAGGUUUAUCGAAUUCUCGGCGGUUGCCUCCAAA [G13U U56C A64U] | < 1e-05 | < 1e-05 | < 1e-05 |
| AUAAAAGCGCCAUAACUACAGAAAUGUAGUUGACGAGGAGGAGGUUUAUCGAAUGCUCGGCGGAUGCCUCCAAA [G13U U55G U56C] | 7.76e-05 ± 2.4e-05 | 0.000112 ± 2.5e-05 |  |
| AUAAAAGCGCCAGGACUACAGAAAUGUAGUUGACGAGGAGGAGGUUUAUGCAAUUUUCGGUGGAUGCCACCAAA [A14G C50G G51C C61U U69A] | 0.000136 ± 6.5e-05 |  |  |
| AUAAAAGCGCCAUAACUACAGAAAUGUAGUAGACGAGGAGGAGGGUUCUCGAAUUUUCGGCGGAUGCCUCCAAA [G13U U31A U45G A48C] | < 1e-05 | < 1e-05 |  |
| AUAAAAGCGCCAUAACUACAGAAAUGUAGUUGACGAGGAGGAGGUUUAUCGAAUUUUCGGUGGAUGCCUGCAAA [G13U C61U C70G] | < 1e-05 |  |  |
| AUAAAAGCGCCAUAACUACAGAAAUGUAGUUAACGGGUAGGAGGUUUAUCGAAUUUUCGGCGGAUGCCUCCAAA [G13U G32A A36G G38U] | < 1e-05 |  |  |
| AUAAAAGCGCCAGGACUACAGAAAUGUAGUUGACAAGGAGGAGGGUUAUCGAAUUUUCGGCGGAUUCCUCCAAA [A14G G35A U45G G66U] | < 1e-05 | < 1e-05 |  |
| AUAAAAGCGCCAGCACUACAGAAAUGUAGUUGAGGAGGAGGAGGUUUAUCGAAUUUUCGGCGGGUGCCUCCAAA [A14C C34G A64G] | < 1e-05 | < 1e-05 |  |
| AUAAAAGCGCCAUAACUACAGAAAUGUAGGUGACGAGGAGGAGGUUUCUCGAAUUUUCGGCGGAUGCCUCCAAA [G13U U30G A48C] | < 1e-05 |  | < 1e-05 |
| AUAAAAGCGCCAUAACUACAGAAAUGUAGUUGACGAGGAGGAGGUUUAUAGAAUUUUCGGCGGAUGCCGCCAAA [G13U C50A U69G] | 0.000105 ± 3.4e-05 | 5.37e-05 ± 1.8e-05 |  |
| AUAAAAGCGCCAUAACUACAGAAAUGUAGUUGACGAGGAGGAGGUUUAUCGAAUUUUCGUCGGAUGCAUCAAAA [G13U G60U C68A C71A] | < 1e-05 | < 1e-05 |  |
| AUAAAAGCGCCAGCACUACAGAAAUGUAGUUGACGAGGAUGAGGUUUAUCGAAUUUUCGGCGGAUGUCUCCAAA [A14C G40U C67U] | < 1e-05 |  |  |
| AUAAAAGCGCCAGGUCUACAGAAAUGUAGUUGACGAGGAGGAGGUUUUUCGAAUUUUCGGCGGAUGCCCCCAAA [A14G A15U A48U U69C] | 6.32e-05 ± 2.6e-05 |  | 7.49e-05 ± 2e-05 |
| AUAAAAGCGCCAUAACUACAGAAAUGUAGUUGACGAGGAGGACGUUUAUCGAAUUUUCGGCGGAUGUCUCCAAA [G13U G43C C67U] | < 1e-05 | < 1e-05 | < 1e-05 |
| AUAAAAGCGCCAGCACUACAGAAAUGUAGUUGAUGAGGAGGAGGUUUAUCGAACUUUCGGCGGAUGCCUCCAAA [A14C C34U U54C] | < 1e-05 | < 1e-05 | < 1e-05 |
| AUAAAAGCGCCAGGAUUACAGAAAUGUAGUUGACGAGGAGGAGGAUUAUCUAAUUUUCGGGGGAUGCCUCCAAA [A14G C16U U45A G51U C61G] | < 1e-05 |  |  |
| AUAAAAGCGCCAGGACUACAGAAAUGUAGUUGACGUGGAGGAGGUUUAUCGAAUUUUCGGCGGAUGCAUCCAAA [A14G A36U C68A] | < 1e-05 | 0.00425 ± 0.0019 |  |
| AUAAAAGCGCCAGGACUACAGAAAUGUAGUUGACGAGGAGGAGGUUUAUCGAAUUUUGGGCGGAUGCCUCAAAA [A14G C58G C71A] | 0.000191 ± 5.2e-05 | 9.06e-05 ± 1.5e-05 |  |
| AUAAAAGCGCCAGGACUACAGAAAUGUAGUUGACAAGGAGGAAGUUUAUCGAAUUUUCGGUGGAUGCCUCCAAA [A14G G35A G43A C61U] | < 1e-05 |  |  |
| AUAAAAGCGCCAUAACUACAGAAAUGUAGUUGACGAGGAGGAGGUUUAUCGAAUUUUCGGCGGAUCCCGCCAAA [G13U G66C U69G] | 7.62e-05 ± 2.3e-05 |  |  |
| AUAAAAGCGCCAUAACUACAGAAAUGUAGUUGACUAGGAUGAGGUUUAUCGAUUUUUCGGCGGAUGCCUCCAAA [G13U G35U G40U A53U] | < 1e-05 |  |  |
| AUAAAAGCGCCAUAACUACAGAAAUGUAGUUGACGAGGAGGAGGUUUAUCGAAUUGUCGGCGGAUGCCUGCAAA [G13U U56G C70G] | 6.47e-05 ± 3.1e-05 | 4.09e-05 ± 1.9e-05 |  |
| AUAAAAGCGCCAGGCCUACAGAAAUGUAAUUGACGAGGAGGAGGUUCAUCGAAUUUUCGGCGGAUGACUCAAAA [A14G A15C G29A U47C C67A C71A] | < 1e-05 |  |  |

| Variant | self-cleavage kobs at 640 uM GlcN6P (glucosamine-6-phosphate [1]) [s⁻¹] | self-cleavage kobs at 2500 uM GlcN6P (glucosamine-6-phosphate [2]) [s⁻¹] | self-cleavage kobs at 10000 uM GlcN6P (glucosamine-6-phosphate [3]) [s⁻¹] |
| --- | --- | --- | --- |
| AUAAAAGCGCCAUAACUACAGAAAUGUAAUAGACGACGAGGAGGUUUAUCGAAUUUUCGGCGGAUGCCUCCAAA [G13U G29A U31A G37C] | < 1e-05 |  |  |
| AUAAAAGCGCCAGCACUACAGAAAUGUAGUUGACGAGUAGGAGUUUUAUCGAAUUUUCGGCGGAUGCGUCCAAA [A14C G38U G44U C68G] | < 1e-05 | < 1e-05 |  |
| AUAAAAGCGCCAGGAGUACAGAAAUGUAGCUGACGAGGAGGAGGUUUAUCGAAUUUUCGGCGGAUGCCUCCAAA [A14G C16G U30C] | 9.39e-05 ± 1.9e-05 |  |  |
| AUAAAAGCGCCAUAACUACAGAAAUGUAGGUGACCAGGAGGAGGUUUAUCGAAUUUUCGGCGGAUGCCUCCAAA [G13U U30G G35C] | < 1e-05 | < 1e-05 | < 1e-05 |
| AUAAAAGCGCCAGCACUACAGAAAUGUAGUUGACGAGGAGGUGGUUUAUCGAAUUUUCGGCGGUUGCCUCCAAA [A14C A42U A64U] | < 1e-05 | < 1e-05 |  |
| AUAAAAGCGCCAGGACUACAGAAAUGUAGUUGACAAGGAGGAGGUUUAUCGAAUUUUCGGCGGAUGCCUCGAAA [A14G G35A C71G] | < 1e-05 |  |  |
| AUAAAAGCGCCAGGAAUACAGAAAUGUAGUUGACGAGGAGGAGGUUUAUCGAAUUUUCGGCCGAUGCCUCCAAA [A14G C16A G62C] | < 1e-05 |  |  |
| AUAAAAGCGCCAGGACUACAGAAAUGUAGUUGACGAGGAGGAGGUUUAUCGAAUUUUCGGCGGAUGUCUCUAAA [A14G C67U C71U] | 0.000875 ± 0.00018 | 0.00249 ± 0.00091 |  |
| AUAAAAGCGCCAGCACUACAGAAAUGUAGUUGCCGAGGAGGAGGUUUAUCGAUUAUUCGUCGGAUGCCUCCAAA [A14C A33C A53U U55A G60U] | < 1e-05 | < 1e-05 |  |
| AUAAAAGCGCCAUAACUACAGAAAUGUAGUUGACGAGGAGGAGGUUUAUCGAAUUUUCGGCCGAUGCCUUCAAA [G13U G62C C70U] | < 1e-05 |  |  |
| AUAAAAGCGCCAGGACUACAGAAAUGUAAUUGACGAGGGGGGUGUUUAUCGAAUUUUCGGCCGAUGCCUCCAAA [A14G G29A A39G A42G G43U G62C] | < 1e-05 | < 1e-05 |  |
| AUAAAAGCGCCAGCACUACAGAAAUGUAGUUGACGAAGUGGAGGUUUAUCGAAUUUUCGGCGGAUGCAUCCAAA [A14C G37A A39U C68A] | < 1e-05 |  |  |
| AUAAAAGCGCCAGCACUACAGAAAUGUAGUUGACGAGGAGGAGGUUUAUCGAUUUUUCGGCGGAUGUCUCCAAA [A14C A53U C67U] | 0.000153 ± 4.6e-05 | 0.000626 ± 0.0002 |  |
| AUAAAAGCGCCAGGACUACAUAAAUGUAGUGGACGAGUAGGAGGUUUAUCGAAUUUCCGGCGGAUGCCUCCAAA [A14G G21U U31G G38U U57C] | < 1e-05 | < 1e-05 |  |
| AUAAAAGCGCCAUAACUACAGAAAUGUAGUUGAGGAGGAGGAGGCUAAUCGAAUUUUCGGCGGAUGCCUCCAAA [G13U C34G U45C U47A] | < 1e-05 | < 1e-05 |  |
| AUAAAAGCGCCAGGACUACAGAAAUGUAGUUGGCGAAGAGGAGGUUUAUGGAAUUUUCGGCGGAUGCCUGCAAA [A14G A33G G37A C50G C70G] | 6.3e-05 ± 2.1e-05 | 4.9e-05 ± 1.5e-05 |  |
| AUAAAAGCGCCAGCACUACAGAAAUGUAGUUGCCGAGGAGGAGCUUUAUCGAAUUUUCUGCGGAUGCCUCCAAA [A14C A33C G44C G59U] | < 1e-05 | < 1e-05 |  |
| AUAAAAGCGCCAGCACUACAGAAAUGUAGUUGACGAGGAGAAGGUUUAUCGAAUUUUCGGCUGAUGCCUGCAAA [A14C G41A G62U C70G] | < 1e-05 | < 1e-05 |  |
| AUAAAAGCGCCAGGACUACAGAAAUGUAGUUGAUGAGGAGGAGGUUUAUCGAAGUUUGGGCGGAUGCCGCCAAA [A14G C34U U54G C58G U69G] | 0.000551 ± 0.0002 |  |  |
| AUAAAAGCGCCAUAACUACAGAAAUGUAUUUGACGAGGAGGAGGUUUAUCGCAUUUUCGGCGGAUGCCUCCAAA [G13U G29U A52C] | < 1e-05 |  |  |
| AUAAAAGCGCCAGGACUACAGAAAUGUAGUUGACGAGGAGGAGGUUUAUCGUAUUUUCGACGGAUGCCUCCAAA [A14G A52U G60A] | < 1e-05 |  |  |
| AUAAAAGCGCCAGGACUACAGAAAUGUAGUUGACGAGGAGGGGGUUUAUCGAAUUUUCCGCGGAUGCCUCCAAA [A14G A42G G59C] | < 1e-05 |  |  |
